Changes are numbered by the printed parent chain.
B1: humanized scFv 16-19-B11-sc01 (CDR graft) (scFv)
scFv: MDIQMTQSPSSLSASVGDRVTITCQASESISSWLAWYQQKPGKAPKLLIYKASTLASGVPSRFSGSGSGTDFTLTISSLQPEDFATYYCQGYYLDSSVDDNVFGGGTKLTVLGGGGGSGGGGSGGGGSGGGGSEVQLVESGGGLVQPGGSLRLSCAASGIDFSTYGISWVRQAPGKGLEWIGYIYPDYGITDYASWVNGRFTISRDNSKNTVYLQMNSLRAEDTAVYYCARSGSYYSRGWGAHYFNLWGQGTLVTVSS
B2: humanized scFv 16-19-B11-sc06 (structural graft) (scFv)
scFv: B1 scFv with T23N, A44R, F72Y, G182A, R205L, S208A, K209Q
B3: humanized scFv 16-19-B11-sc02 (structural graft) (scFv)
scFv: B1 scFv with T23N, D71E, S78G, E82A, A156K, G182A, R205L

How the values were obtained:
Rhesus monkey TNFα = Rhesus monkey TNFα (Rhesus monkey (Macaca mulatta), UniProt P48094 77-233); assay: cell-based or functional assay
Chain of Rhesus monkey TNFα (P48094 77-233 limits assumed): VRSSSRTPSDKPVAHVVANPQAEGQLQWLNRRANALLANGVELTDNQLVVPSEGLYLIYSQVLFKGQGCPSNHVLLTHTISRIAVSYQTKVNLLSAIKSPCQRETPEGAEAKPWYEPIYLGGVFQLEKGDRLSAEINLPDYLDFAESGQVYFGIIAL

recombinant human TNFα [1] = biological target: T1, recombinant human TNFα (human, UniProt P01375 77-233); assay: cell-based or functional assay
T1 sequence (P01375 77-233 limits assumed): as the sequence (P48094 77-233 limits assumed) above, with T44R, N72T, L138R counted along it

[2] = biological target: recombinant Cynomolgus monkey TNFα (Cynomolgus monkey (Macaca fascicularis), UniProt P79337 77-233); assay: cell-based or functional assay
Chain of recombinant Cynomolgus monkey TNFα (P79337 77-233 limits assumed): as the sequence (P48094 77-233 limits assumed) above, with L37V counted along it

recombinant human TNFα [3] = biological target: T1, recombinant human TNFα; assay: SPR (MASS-1), human TNFα immobilised, scFv injected; screening with 90 nM of scFv
Description: (§1) In a second step, for the best performing scFvs, Single Injection Cycle Kinetics (SiCK) were measured from a single injection cycle by simultaneously injecting six analyte samples at different concentrations into each of the eight parallel channels in the MASS-1 system. […] The apparent dissociation (kd) and association (kₐ) rate constants and the apparent dissociation equilibrium constant (KD) were calculated with the MASS-1 analysis software (Analyzer, Sierra Sensors) using one-to-one Langmuir binding model and quality of the fits was monitored based on Chi², which is a measure for the quality of the curve fitting. The smaller the value for the Chi² the more accurate is the fitting to the one-to-one Langmuir binding model. For affinity screenings, results were deemed valid if the Chi² was below 10 for the concentration analyzed. In cases where several scFv concentrations were analyzed, results were deemed valid if the average Chi² over all the concentrations tested was below 10.

recombinant human TNFα [4] = biological target: T1, recombinant human TNFα; assay: SPR (MASS-1), human TNFα immobilised, two-fold serial dilutions of scFv injected
Description: Affinity was determined using 2-fold serial dilutions of the respective scFvs.
as §1

| Binder | Species specificity in L929 assay IC50 (ng/ml), rhesus (Rhesus monkey TNFα) [ng/mL] | Neutralization of TNF in L929 assay, rel. IC50 (IC50, Infliximab (ng/ml)/IC50, scFv (ng/ml)) (recombinant human TNFα [1]) [ratio] | Neutralization of TNF in L929 assay, rel. IC90 (IC90, Infliximab (ng/ml)/IC90, scFv (ng/ml)) (recombinant human TNFα [1]) [ratio] | Species specificity in L929 assay IC50 (ng/ml), human (recombinant human TNFα [1]) [ng/mL] | Species specificity in L929 assay IC50 (ng/ml), cyno [2] [ng/mL] | Kd (recombinant human TNFα [3]) [nM] | koff (recombinant human TNFα [3]) [s⁻¹] | kon (recombinant human TNFα [3]) [M⁻¹ s⁻¹] | Kd (recombinant human TNFα [4]) [nM] | koff (recombinant human TNFα [4]) [s⁻¹] | kon (recombinant human TNFα [4]) [M⁻¹ s⁻¹] |
| --- | --- | --- | --- | --- | --- | --- | --- | --- | --- | --- | --- |
| B1 | 59.7 | 0.6 | 0.2 | 12.1 | 92.1 | 0.7 | 0.00048 | 680000 | – | – | – |
| B2 | 1 | 16.2 | 15 | 0.4 | 1.8 | – | – | – | 0.059 | 5.8e-05 | 970000 |
| B3 | – | 94 | 4.5 | 0.8 | – | 0.22 | 0.00016 | 730000 | – | – | – |
